Where a chain is given by its changes, count along the chain named. Numbers in names are those of the source. Where two headings read alike, the source gives them in different places.
T1: Z-GASR-CHO
T1 sequence: GASR

T2: Z-LSSR-CHO
T2 sequence: LSSR

T3: Ac-LSSR-AMC
T3 sequence: LSSR

T4: [35S]methionine-labeled human A20 (in vitro translated) (UniProt P21580)
T4 sequence: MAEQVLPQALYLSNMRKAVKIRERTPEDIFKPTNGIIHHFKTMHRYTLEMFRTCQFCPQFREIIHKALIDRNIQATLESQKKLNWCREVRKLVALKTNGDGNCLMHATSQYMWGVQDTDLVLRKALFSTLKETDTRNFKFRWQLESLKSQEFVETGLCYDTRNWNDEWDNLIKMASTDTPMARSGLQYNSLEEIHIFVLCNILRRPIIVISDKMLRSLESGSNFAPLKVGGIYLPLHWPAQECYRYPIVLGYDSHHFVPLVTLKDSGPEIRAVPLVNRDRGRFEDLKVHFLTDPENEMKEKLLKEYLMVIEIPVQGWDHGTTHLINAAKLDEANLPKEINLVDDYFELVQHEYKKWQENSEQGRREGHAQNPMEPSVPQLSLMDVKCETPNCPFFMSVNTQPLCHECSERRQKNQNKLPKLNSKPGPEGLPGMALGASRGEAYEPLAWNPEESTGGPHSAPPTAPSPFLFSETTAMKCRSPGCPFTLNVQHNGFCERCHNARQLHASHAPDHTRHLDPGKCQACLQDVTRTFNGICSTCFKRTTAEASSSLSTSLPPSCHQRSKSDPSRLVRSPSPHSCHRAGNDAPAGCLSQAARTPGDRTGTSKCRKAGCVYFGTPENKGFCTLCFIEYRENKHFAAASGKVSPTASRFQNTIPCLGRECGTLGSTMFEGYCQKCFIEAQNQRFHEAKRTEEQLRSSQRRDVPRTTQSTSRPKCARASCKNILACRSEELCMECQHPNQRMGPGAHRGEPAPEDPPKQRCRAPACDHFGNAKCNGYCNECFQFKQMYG

T5: Ac-LSSR-AMC
T5 chain: LSSR

T6: Z-LSSR-CHO
T6 chain: LSSR

T7: Arabidopsis thaliana serpin (AT1g47710), Q9S7T8
T7 chain: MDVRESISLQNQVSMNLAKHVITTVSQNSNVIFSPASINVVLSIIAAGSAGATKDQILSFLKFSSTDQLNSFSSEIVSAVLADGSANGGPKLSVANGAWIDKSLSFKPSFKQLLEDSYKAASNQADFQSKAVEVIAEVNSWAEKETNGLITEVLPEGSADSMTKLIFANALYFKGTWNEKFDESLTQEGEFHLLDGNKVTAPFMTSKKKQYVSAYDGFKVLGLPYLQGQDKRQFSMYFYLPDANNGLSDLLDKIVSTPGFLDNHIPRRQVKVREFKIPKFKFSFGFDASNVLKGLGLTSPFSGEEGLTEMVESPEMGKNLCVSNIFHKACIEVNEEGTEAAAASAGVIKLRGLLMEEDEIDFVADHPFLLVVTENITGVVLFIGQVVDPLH

T8: Arabidopsis thaliana serpin, IKLA-mutant, Q9S7T8
T8 chain: T7 chain with R351A

B1: MALT1 (wild type, Flag- and Avi-tagged bio-construct) (protein)
chain: MSLLGDPLQALPPSAAPTGPLLAPPAGATLNRLREPLLRRLSELLDQAPEGRGWRRLAELAGSRGRLRLSCLDLEQCSLKVLEPEGSPSLCLLKLMGEKGCTVTELSDFLQAMEHTEVLQLLSPPGIKITVNPESKAVLAGQFVKLCCRATGHPFVQYQWFKMNKEIPNGNTSELIFNAVHVKDAGFYVCRVNNNFTFEFSQWSQLDVCDIPESFQRSVDGVSESKLQICVEPTSQKLMPGSTLVLQCVAVGSPIPHYQWFKNELPLTHETKKLYMVPYVDLEHQGTYWCHVYNDRDSQDSKKVEIIIGRTDEAVECTEDELNNLGHPDNKEQTTDQPLAKDKVALLIGNMNYREHPKLKAPLVDVYELTNLLRQLDFKVVSLLDLTEYEMRNAVDEFLLLLDKGVYGLLYYAGHGYENFGNSFMVPVDAPNPYRSENCLCVQNILKLMQEKETGLNVFLLDMCRKRNDYDDTIPILDALKVTANIVFGYATCQGAEAFEIQHSGLANGIFMKFLKDRLLEDKKITVLLDEVAEDMGKCHLTKGKQALEIRSSLSEKRALTDPIQGTEYSAESLVRNLQWAKAHELPESMCLKFDCGVQIQLGFAAEFSNVMIIYTSIVYKPPEIIMCDAYVTDFPLDLDIDPKDANKGTPEETGSYLVSKDLPKHCLYTRLSSLQKLKEHLVFTVCLSYQYSGLEDTVEDKQEVNVGKPLIAKLDMHRGLGRKTCFQTCLMSNGPYQSSAATSGGAGHYHSLQDPFHGVYHSHPGNPSNVTPADSCHCSRTPDAFISSFAHHASCHFSRSNVPVETTDEIPFSFSDRLRISEK
B2: MALT1 as used in the paracaspase assay of Example 10 (protein)
chain: B1 chain
B3: MALT1-R149A (bio-tagged) (protein)
chain: B1 chain with R149A
B4: MALT1-C464A (bio-tagged) (protein)
chain: B1 chain with C464A
B5: MALT1C-gyraseB-C464A (enzyme, part only; not given: gyrase B fragment)
chain, part: TTDQPLAKDKVALLIGNMNYREHPKLKAPLVDVYELTNLLRQLDFKVVSLLDLTEYEMRNAVDEFLLLLDKGVYGLLYYAGHGYENFGNSFMVPVDAPNPYRSENCLCVQNILKLMQEKETGLNVFLLDMARKRNDYDDTIPILDALKVTANIVFGYATCQGAEAFEIQHSGLANGIFMKFLKDRLLEDKKITVLLDEVAEDMGKCHLTKGKQALEIRSSLSEKRALTDPIQGTEYSAESLVRNLQWAKAHELPESMCLKFDCGVQIQLGFAAEFSNVMIIYTSIVYKPPEIIMCDAYVTDFPLDLDIDPKDANKGTPEETGSYLVSKDLPKHCLYTRLSSLQKLKEHLVFTVCLSYQYSGLEDTVEDKQEVNVGKPLIAKLDMHRGLGRKTCFQTCLMSNGPYQSSAATSGGAGHYHSLQDPFHGVYHSHPGNPSNVTPADSCHCSRTPDAFISSFAHHASCHFSRSNVPVETTDEIPFSFSDRLRISEK

Legend:
[1] = tested on: T1, Z-GASR-CHO
[2] = tested on: T2, Z-LSSR-CHO
[3] = tested on: T3, Ac-LSSR-AMC
[4] = target: T4, [35S]methionine-labeled human A20 (in vitro translated)
[5] = target: T5, Ac-LSSR-AMC
[6] = target: T6, Z-LSSR-CHO
[7] = target: T7, Arabidopsis thaliana serpin …
[8] = target: T8, Arabidopsis thaliana serpin, …

Row | Molecule | cleavage of Ac-LSSR-AMC in vitro (fluorescence release) [3] | in vitro cleavage of radiolabeled A20 (SDS-PAGE, autoradiography; 500, 1000 or 1500 nM enzyme) [4] | cleavage of Ac-LSSR-AMC in vitro (fluorescence release) [5] | also measured
1 | MALT1C-gyraseB | the recombinant MALT1 p20 fragment (Sun et al., 2004) efficiently cleaved the Ac-LSSR-AMC (see SEQ ID NO:1) substrate | In vitro incubation of radiolabeled A20 with recombinant MALT1C-gyraseB resulted in the generation of an A20 fragment of approximately 50 kDa |  | Ac-LSSR-AMC cleavage by recombinant MALT1 [1]: adding Z-LSSR-CHO (see SEQ ID NO:1) or Z-GASR-CHO (see SEQ ID NO:2) completely blocked the proteolytic activity of recombinant MALT1; Ac-LSSR-AMC cleavage by recombinant MALT1 [2]: adding Z-LSSR-CHO (see SEQ ID NO:1) or Z-GASR-CHO (see SEQ ID NO:2) completely blocked the proteolytic activity of recombinant MALT1
2 | B1 |  |  | bio-IP purified MALT1 was indeed able to cleave Ac-LSSR-AMC (see SEQ ID NO:1) in vitro | Ac-LSSR-AMC cleavage by bio-IP purified MALT1 (fluorescence release) [6]: Substrate cleavage by MALT1 was efficiently blocked by a Z-LSSR-CHO (see SEQ ID NO:1) and a Z-GASR-CHO (see SEQ ID NO:2) inhibitor at equimolar concentrations
3 | B2 |  |  |  | paracaspase assay (MALT1 proteolytic activity) [7]: Inhibition of the MALT1 paracaspase activity is possible, but only at relatively high concentrations of serpin; paracaspase assay (MALT1 proteolytic activity) [8]: the IKLA-mutant (SEQ ID NO:16), which is inactive versus plant metacaspase (Vercammen et al., 2006) is performing better than wild type serpin at higher concentrations
4 | B3 |  |  | the R149A mutant was as efficient in substrate processing as MALT1 | 
5 | B4 |  |  | whereas bio-1P purified C464 mutant was not | 
6 | B5 | the recombinant C464A mutant failed to do so, although its higher concentration | incubation of A20 with the catalytically inactive MALT1C-gyraseB-C464A mutant protein did not result in A20 cleavage |  | 

— US8309523 (VIB VZW, dated 2012)
